Assay results reported in article PMC6328613.
pKd: −log10 of the molar value.

How the values were obtained:
MBP-Scyl1 [1] = molecular target: MBP-Scyl1 (UniProt Q96KG9); assay: SPR; ProteOn XPR36, GLH chip; cross-linked anti-MBP antibody, MBP-Scyl1 captured (3000 RU), GST-GORAB variants as analyte at 30 nM, 100 µL/min, 120 s association, 600 s dissociation; 150 mM NaCl, 10 mM HEPES, 0.02% Tween-20, pH 7.4
MBP-Scyl1 [2] = molecular target: MBP-Scyl1 (UniProt Q96KG9)

UniProt Q96KG9, sequence (Q96KG9 whole entry): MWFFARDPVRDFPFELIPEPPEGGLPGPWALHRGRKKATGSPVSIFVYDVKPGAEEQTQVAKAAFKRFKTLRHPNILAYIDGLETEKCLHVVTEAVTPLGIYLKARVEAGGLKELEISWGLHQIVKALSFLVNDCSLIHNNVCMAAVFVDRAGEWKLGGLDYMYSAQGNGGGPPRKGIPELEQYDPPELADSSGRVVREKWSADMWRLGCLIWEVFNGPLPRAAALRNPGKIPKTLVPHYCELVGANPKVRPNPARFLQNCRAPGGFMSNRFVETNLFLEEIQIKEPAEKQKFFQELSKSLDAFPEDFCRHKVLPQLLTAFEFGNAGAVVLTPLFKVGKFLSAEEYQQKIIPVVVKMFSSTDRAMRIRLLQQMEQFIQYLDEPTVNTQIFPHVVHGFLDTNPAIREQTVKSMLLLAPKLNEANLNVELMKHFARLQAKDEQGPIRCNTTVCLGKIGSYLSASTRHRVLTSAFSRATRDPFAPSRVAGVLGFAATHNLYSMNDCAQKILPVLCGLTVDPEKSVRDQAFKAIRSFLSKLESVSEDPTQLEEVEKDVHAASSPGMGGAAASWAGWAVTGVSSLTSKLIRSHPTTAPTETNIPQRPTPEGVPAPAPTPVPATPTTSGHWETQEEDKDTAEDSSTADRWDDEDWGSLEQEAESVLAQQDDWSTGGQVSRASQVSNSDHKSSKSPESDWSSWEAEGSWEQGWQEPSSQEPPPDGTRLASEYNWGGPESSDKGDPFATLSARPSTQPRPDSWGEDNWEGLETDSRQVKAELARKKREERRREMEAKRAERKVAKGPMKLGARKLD

Row | Substance | pKd (MBP-Scyl1 [1]) | recruitment of coatomer (δ-COP, ε-COP) to liposomes in the presence of myr-Arf1, with MBP-Scyl1 against MBP-IPIP27A (MBP-Scyl1 [2]) [fold]
1 | GST-GORAB (natural protein) | 9.28 | –
2 | GST-GORAB K190del (natural protein) | 9.28 | –
3 | recombinant mouse coatomer isotype γ2ζ1 (from UniProt Q9QXK3 1-871; P61924 1-177; Q5XJY5 1-511; O89079 1-308; O55029 1-905) (complex) | – | 2
